B1: human TRAF1 TRAF domain (residues 220-416), containing the TRAF-N coiled-coil domain and the TRAF-C domain (domain or fragment, UniProt Q13077 220-416, looked up)
chain: HQSQLDRERILSLEQRVVELQQTLAQKDQALGKLEQSLRLMEEASFDGTFLWKITNVTRRCHESACGRTVSLFSPAFYTAKYGYKLCLRLYLNGDGTGKRTHLSLFIVIMRGEYDALLPWPFRNKVTFMLLDQNNREHAIDAFRPDLSSASFQRPQSETNVASGCPLFFPLSKLQSPKHAYVKDDTMFLKCIVETST
notes: TNF-receptor associated factor 1 (TRAF1), human, TRAF domain, amino acids 220-416, cloned into pET24a; Trimer in the crystal and in solution (SEC, MALS); also called wildtype TRAF1; not shown: His-tag, C-terminal, kept

Key:
[1] = molecular target: TANK peptide PEP (Homo sapiens) (UniProt Q92844); details: cited from earlier work
TANK peptide PEP (Homo sapiens), sequence (Q92844 178-198): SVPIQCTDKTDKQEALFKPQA

[2] = molecular target: the molecule itself; assay: SEC; Superdex 200 10/30 gel filtration in 20 mM sodium citrate pH 5.0, 1 M NaCl
[3] = molecular target: B1; assay: ITC; NanoITC; 1 mM TANK peptide injected into ~20 uM wildtype or mutant TRAF1 in the cell; PBS; 15 °C; 25 injections; single site model; details: both partners purified

## TRAF3 (from UniProt Q13114)
[1]
  Kd: 23.9 µM

## B1
[2]
  stoichiometry N: 3

B2: TANK peptide (SVPIQCTDKT) (peptide)
peptide: SVPIQCTDKT
notes: also called I-TRAF; source: synthetic peptide (Peptron, Dae-jeon, South Korea)
[3]
  Kd: 13.6 µM

Reference: article PMC4858697, “Crystal structure of TRAF1 TRAF domain and its implications in the TRAF1-mediated intracellular signaling pathway” (Scientific Reports, 2016)
